Results as given in patent US20240132578A1.

Columns and labels:
Assay in all cases: cell-based or functional assay
[1] = target: HIV-1 Env of isolate MGRM-D-012 (clade D pseudovirus) (HIV-1)
[2] = target: HIV-1 Env of isolate MGRM-AE-008 (pseudovirus) (HIV-1)
[3] = target: HIV-1 Env of isolate MGRM-G-015 (subtype G) (HIV-1)
[4] = target: HIV-1 92TH021 envelope protein (Env) on pseudovirus (HIV-1)
[5] = target: HIV-1 IAVI-C3 envelope (Env) on pseudovirus (HIV-1)
[6] = target: HIV-1 envelope glycoprotein (Env) of isolate LAVIC_18 (HIV-1)
[7] = target: HIV-1 envelope glycoprotein (Env) of isolate MGRM-C-004 (HIV-1)
[8] = target: HIV-1 Env of isolate MGRM-A-012 (clade A pseudovirus) (HIV-1)
[9] = target: HIV-1 Env of isolate 92RW020 (Clade A) (HIV-1)
[10] = target: HIV-1 92TH021 Env (pseudovirus) (HIV-1)
[11] = target: HIV-1 92TH021 envelope (Env) on pseudovirus (HIV-1)
[12] = target: HIV-1 Env of isolate MGRM-F1-016 (pseudovirus) (HIV-1)
[13] = target: HIV-1 envelope glycoprotein (Env) of isolate 92WR009, subtype A (HIV-1)
[14] = target: HIV-1 CMU02 envelope protein (Env) on pseudovirus (HIV-1)
[15] = target: HIV-1 envelope glycoprotein (Env) of isolate APV_17, on pseudovirus (HIV-1)
[16] = target: HIV-1 envelope glycoprotein (Env) of isolate 94UG103, subtype A (HIV-1)
[17] = target: HIV-1 Env of isolate MGRM-F1-023 (pseudovirus) (HIV-1)
[18] = target: HIV-1 envelope glycoprotein (Env) of isolate MGRM-Chronic-B-023, on pseudovirus (HIV-1)
[19] = target: HIV-1 envelope glycoprotein (Env) of isolate MGRM-Chronic-B-024, on pseudovirus (HIV-1)
[20] = target: HIV-1 JR-CSF Env I420A (HIV-1 (isolate JR-CSF)) (UniProt P20871)
[21] = target: HIV-1 JR-CSF Env T413A (HIV-1 (isolate JR-CSF)) (UniProt P20871)
[22] = target: HIV-1 Env of isolate MGRM-C-015 (subtype C), on pseudovirus (HIV-1)
[23] = target: HIV-1 Env of isolate MG RM-A-005 (pseudovirus) (HIV-1)
[24] = target: HIV-1 Env of pseudovirus isolate APV-17 (clade B) (HIV-1)
[25] = target: HIV-1 Env of isolate MG RM-A-010 (pseudovirus) (HIV-1)
[26] = target: HIV-1 Env of isolate MGRM-D-008 (HIV-1)
[27] = target: HIV-1 Env of isolate MGRM-F1-004 (HIV-1)
[28] = target: HIV-1 Env of isolate MGRM-D-016 (pseudovirus) (HIV-1)
[29] = target: HIV-1 Env of isolate MGRM-AE-002 (subtype AE) (HIV-1)
[30] = target: HIV-1 Env of pseudovirus isolate MGRM-C-009 (clade C) (HIV-1)
[31] = target: HIV-1 Env of pseudovirus isolate MGRM-C-014 (clade C) (HIV-1)
[32] = target: HIV-1 Env of isolate MGRM-A-009 (subtype A) (HIV-1)
[33] = target: HIV-1 Env of isolate MGRM-Chronic-B-008 (HIV-1)
[34] = target: HIV-1 Env of isolate MGRM-A-004 (pseudovirus) (HIV-1)
[35] = target: HIV-1 Env of isolate 92UG005 (pseudovirus) (HIV-1)

Sequence of 4970_K22 (PGT-144) (antibody) (VH): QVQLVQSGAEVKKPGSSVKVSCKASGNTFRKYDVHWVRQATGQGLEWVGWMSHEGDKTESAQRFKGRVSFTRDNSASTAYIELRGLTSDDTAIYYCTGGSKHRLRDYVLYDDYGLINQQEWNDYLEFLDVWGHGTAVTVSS
Sequence of 4970_K22 (PGT-144) (antibody) (VL): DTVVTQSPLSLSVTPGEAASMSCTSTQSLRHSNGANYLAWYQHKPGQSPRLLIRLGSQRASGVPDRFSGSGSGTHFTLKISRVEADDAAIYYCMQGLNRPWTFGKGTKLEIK
Sequence of 4980_N08 (PGT-143) (antibody) (VH): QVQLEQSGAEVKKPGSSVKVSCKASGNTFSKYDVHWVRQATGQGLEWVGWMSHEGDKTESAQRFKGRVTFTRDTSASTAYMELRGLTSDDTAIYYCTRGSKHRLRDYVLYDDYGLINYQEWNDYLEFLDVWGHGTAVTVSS
Sequence of 4980_N08 (PGT-143) (antibody) (VL): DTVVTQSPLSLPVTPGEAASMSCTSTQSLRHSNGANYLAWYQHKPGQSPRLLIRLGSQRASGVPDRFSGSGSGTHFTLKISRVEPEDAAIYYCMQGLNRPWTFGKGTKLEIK
Sequence of 4993_K13 (PGT-141) (antibody) (VH): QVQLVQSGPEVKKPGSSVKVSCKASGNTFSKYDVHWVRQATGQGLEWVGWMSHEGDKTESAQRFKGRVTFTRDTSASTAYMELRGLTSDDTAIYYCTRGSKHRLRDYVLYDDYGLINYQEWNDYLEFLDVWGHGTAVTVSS
Sequence of 4993_K13 (PGT-141) (antibody) (VL): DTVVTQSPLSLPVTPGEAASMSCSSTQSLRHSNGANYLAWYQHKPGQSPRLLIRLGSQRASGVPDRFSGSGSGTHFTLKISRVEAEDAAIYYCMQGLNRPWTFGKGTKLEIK

Substance | IC50 (µg/mL), pseudovirus neutralization [2] | IC50 (µg/mL), pseudovirus neutralization [3] | IC50 (ug/mL), pseudovirus neutralization [4] | IC50 (µg/mL), pseudovirus neutralization [12] | IC50, pseudovirus neutralization [13] | IC50 (ug/mL), pseudovirus neutralization [14] | IC50, pseudovirus neutralization [15] | IC50, pseudovirus neutralization [16] | IC50 (µg/mL), pseudovirus neutralization [17] | IC50, pseudovirus neutralization [18] | IC50, pseudovirus neutralization [19] | IC50, single-round pseudovirus neutralization [22] | IC50 (µg/mL), single-round pseudovirus neutralization [23] | IC50, pseudovirus neutralization [24] | IC50 (µg/mL), single-round pseudovirus neutralization [25] | IC50 (µg/mL), pseudovirus neutralization [26] | also measured
1496_C09 (PG9) (TCN-109) (antibody) | 31.5 µg/mL | 6.6 µg/mL | 0.103 µg/mL |  |  |  |  |  |  |  |  |  |  |  |  |  | IC50, pseudovirus neutralization [1]: 9.31 µg/mL; neutralization IC50 [5]: 12.9 µg/mL; IC50 (µg/ml), pseudovirus neutralization [6]: 0.1 µg/mL; IC50 (µg/ml), pseudovirus neutralization [7]: 1.18 µg/mL; IC50 (µg/ml), pseudovirus neutralization [8]: 11.2 µg/mL; IC90 (neutralization of pseudovirus) [9]: 6.55 µg/mL; IC50 (µg/ml), pseudovirus neutralization [10]: 0.09 µg/mL; neutralization IC50 [11]: 0.111 µg/mL
4838_L06 (PGT-121) (antibody) |  |  | > 10 µg/mL | 0.931 µg/mL | 1.74 µg/mL | > 10 µg/mL | 0.066 µg/mL | 2.52 µg/mL | 0.097 µg/mL | 0.005 µg/mL | 0.195 µg/mL |  |  |  |  |  | 
4858_P08 (PGT-123) (antibody) | > 50 µg/mL |  | > 10 µg/mL | 4.95 µg/mL | 15.7 µg/mL | > 10 µg/mL | 0.114 µg/mL | 0.678 µg/mL | 0.053 µg/mL | 0.055 µg/mL | > 50 µg/mL |  |  |  |  |  | Fold IC50 increase relative to wild-type (pseudovirus neutralization) [20]: 3.2 fold; Fold IC50 increase relative to wild-type (pseudovirus neutralization) [21]: 0.4 fold
4877_D15 (PGT-122) (antibody) | > 50 µg/mL |  | > 10 µg/mL | 4.81 µg/mL | 42.4 µg/mL | > 10 µg/mL | 0.25 µg/mL | 2.04 µg/mL | 0.154 µg/mL | 0.01 µg/mL | 2.31 µg/mL |  |  |  |  |  | 
4970_K22 (PGT-144) (antibody) |  | > 50 µg/mL |  |  |  |  |  |  |  |  |  | 0.236 µg/mL | 18.6 µg/mL | 10.3 µg/mL | 2.79 µg/mL | 9.85 µg/mL | 
4980_N08 (PGT-143) (antibody) |  | > 50 µg/mL |  |  |  |  |  |  |  |  |  | 0.085 µg/mL | 7.48 µg/mL | 1.11 µg/mL | 0.019 µg/mL | 0.153 µg/mL | 
4993_K13 (PGT-141) (antibody) |  | > 50 µg/mL |  |  |  |  |  |  |  |  |  | 0.033 µg/mL | 11.1 µg/mL | 0.59 µg/mL | 0.022 µg/mL | 0.371 µg/mL | 
5114_A19 (PGT-128) (antibody) |  |  |  |  |  |  |  |  |  |  |  |  |  |  |  |  | IC50 (µg/mL), pseudovirus neutralization [27]: 0.027 µg/mL; Fold IC50 increase relative to wild-type (pseudovirus neutralization) [20]: 0.8 fold; IC50 (µg/mL), pseudovirus neutralization [28]: > 50 µg/mL; IC50, pseudovirus neutralization [29]: 0.522 µg/mL; IC50, pseudovirus neutralization [30]: > 50 µg/mL; IC50, pseudovirus neutralization [31]: > 50 µg/mL; IC50, pseudovirus neutralization [32]: 0.005 µg/mL; IC50 (µg/mL), pseudovirus neutralization [33]: 0.143 µg/mL; Fold IC50 increase relative to wild-type (pseudovirus neutralization) [21]: 1 fold; IC50 (µg/mL), pseudovirus neutralization [34]: > 50 µg/mL; IC50 (µg/mL), pseudovirus neutralization [35]: 0.018 µg/mL
